Changes are numbered by the printed parent chain. Names and notes keep the numbering of the source.
What was measured:
[1] = biological target: T1, homoserine dehydrogenase (HseDH) (Pyrococcus horikoshii, UniProt O58802, R40A); assay: FT-ICR MS of cofactor released from purified protein; format: binding
T1 construct: gene PH1075; His-tagged HseDH
T1 sequence (O58802 1-319 R40A): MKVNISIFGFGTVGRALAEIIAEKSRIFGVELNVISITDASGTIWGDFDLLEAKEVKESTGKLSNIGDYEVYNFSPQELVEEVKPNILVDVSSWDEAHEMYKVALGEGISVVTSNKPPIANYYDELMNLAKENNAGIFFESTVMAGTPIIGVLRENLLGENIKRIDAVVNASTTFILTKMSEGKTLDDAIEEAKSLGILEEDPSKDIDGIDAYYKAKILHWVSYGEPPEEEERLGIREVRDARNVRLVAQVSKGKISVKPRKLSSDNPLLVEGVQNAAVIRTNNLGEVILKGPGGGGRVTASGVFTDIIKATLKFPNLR

[2] = biological target: T2, homoserine dehydrogenase (HseDH) (Pyrococcus horikoshii, UniProt O58802, K57A); assay: crystal structure at […] Å (with Hse); FT-ICR MS; format: binding
T2 construct: gene PH1075; ordered residues 1-319 in each subunit (homodimer)
T2 sequence (O58802 1-319 K57A): T1 sequence (O58802 1-319 R40A) with A40R, K57A

[3] = biological target: T3, homoserine dehydrogenase (HseDH) (Pyrococcus horikoshii, UniProt O58802); assay: crystal structure at […] Å; FT-ICR MS of released cofactor; format: binding; parameters: gene PH1075; ordered residues 1-319 in each subunit (homodimer)
T3 sequence (O58802 1-319): T1 sequence (O58802 1-319 R40A) with A40R

[4] = biological target: T2, homoserine dehydrogenase (HseDH); assay: crystal structure at […] Å (with NADPH); format: binding
[5] = biological target: T3, homoserine dehydrogenase (HseDH); assay: inhibition of NAD-dependent Hse oxidation, Morrison tight-binding fit; format: biochemical; parameters: gene PH1075; His-tagged HseDH
purified protein [6] = substrate: NC(=O)C1=CN([C@@H]2O[C@H](COP(=O)(O)OP(=O)(O)OC[C@H]3O[C@@H](n4cnc5c(N)ncnc54)[C@H](O)[C@@H]3O)[C@@H](O)[C@H]2O)C=CC1; assay: purified protein; conditions: varied: cofactor
purified protein [7] = substrate: N[C@@H](CCO)C(=O)O; assay: purified protein; conditions: NAD
purified protein [8] = substrate: NC(=O)c1ccc[n+]([C@@H]2O[C@H](COP(=O)([O-])OP(=O)(O)OC[C@H]3O[C@@H](n4cnc5c(N)ncnc54)[C@H](O)[C@@H]3O)[C@@H](O)[C@H]2O)c1; assay: purified protein; format: biochemical, Pyrococcus horikoshii; conditions: varied: cofactor
[9] = biological target: the molecule itself; assay: SEC; gel filtration on Superose 6 10/300 GL, 10 mM Tris-HCl (pH 7.5) with 0.2 M NaCl; native mass against Bio-Rad gel filtration standards
purified protein [10] = substrate: NC(=O)c1ccc[n+]([C@@H]2O[C@H](COP(=O)(O)OP(=O)(O)OC[C@H]3O[C@@H](n4cnc5c(N)ncnc54)[C@H](OP(=O)(O)O)[C@@H]3O)[C@@H](O)[C@H]2O)c1; assay: purified protein; format: biochemical, Pyrococcus horikoshii; conditions: varied: cofactor
[11] = biological target: the molecule itself; assay: crystal structure; sitting-drop vapor diffusion at 20 °C; wild type: 0.1 M potassium phosphate pH 6.2, 20% MPD; K57A with 1 mM Hse: 16% PEG monomethyl ether 2000, 0.1 M citrate pH 6.5; one homodimer in the asymmetric unit

NC(=O)C1=CN([C@@H]2O[C@H](COP(=O)(O)OP(=O)(O)OC[C@H]3O[C@@H](n4cnc5c(N)ncnc54)[C@H](OP(=O)(O)O)[C@@H]3O)[C@@H](O)[C@H]2O)C=CC1 [NADPH]
FT-ICR MS of cofactor released from purified protein [1]: indicating that NADPH tightly bound to R40A, as in the case of the wild type enzyme
crystal structure at 2.43 Å (with Hse); FT-ICR MS [2]: we observed a clear density corresponding to the cofactor bound within the nucleotide-binding site
crystal structure at 2.30 Å; FT-ICR MS of released cofactor [3]: These results demonstrate that the molecule bound to P. horikoshii HseDH is NADPH.

N[C@@H](CCO)C(=O)O [Hse]
crystal structure at 2.43 Å (with NADPH) [4]: extra density within the active site cavity, and after construction and refinement of the peptide chain, a Hse molecule could be modeled

NC(=O)c1ccc[n+]([C@@H]2O[C@H](COP(=O)(O)OP(=O)(O)OC[C@H]3O[C@@H](n4cnc5c(N)ncnc54)[C@H](OP(=O)(O)O)[C@@H]3O)[C@@H](O)[C@H]2O)c1 [NADP]
Ki [5]: 5.2 ± 0.1 nM

B1: Pyrococcus horikoshii homoserine dehydrogenase (HseDH), His-tagged wild type (enzyme, UniProt O58802 1-319, looked up)
chain: T1 sequence (O58802 1-319 R40A) with A40R
notes: Homoserine dehydrogenase, Pyrococcus horikoshii, open reading frame PH1075; amplified from the initiation codon to the termination codon; ordered residues 1-319 in each subunit of the crystal; calculated molecular weight 36,925; Expressed from pColdI (construct pCHseDH); the vector probably adds an N-terminal His6 tag with a factor Xa site (surmised); no tag removal is described; also called P. …
Km (purified protein [6]): 0.019 ± 0.01 mM
Km (purified protein [7]): 6.1 ± 0.1 mM
Km (purified protein [8]): 0.32 ± 0.04 mM
Vmax (purified protein [8]): 114 µmol/min/mg
kcat (purified protein [8]): 70.1 ± 4.5 s⁻¹
kcat/Km (purified protein [8]): 219000 ± 13000 M⁻¹ s⁻¹
stoichiometry N [9]: 2

B2: Pyrococcus horikoshii homoserine dehydrogenase (HseDH) K57A mutant, His-tagged (enzyme, UniProt O58802 1-319, looked up)
chain: T1 sequence (O58802 1-319 R40A) with A40R, K57A
notes: Homoserine dehydrogenase, Pyrococcus horikoshii, open reading frame PH1075, with K57A made by site-directed mutagenesis of pCHseDH; ordered residues 1-319 in each subunit of the crystal; Made from pCHseDH (pColdI); the vector probably adds an N-terminal His6 tag (surmised); Crystallized with Hse; source: E. coli BL21 (DE3) codon plus-RIPL, purified (same method as the His-tagged wild type)
Km (purified protein [10]): 0.06 ± 0.01 mM
Vmax (purified protein [10]): 43.3 µmol/min/mg
kcat (purified protein [10]): 26.7 ± 0.2 s⁻¹
kcat/Km (purified protein [10]): 518000 ± 29000 M⁻¹ s⁻¹
binding result [11]: binds

B3: homoserine dehydrogenase (HseDH) (Pyrococcus horikoshii OT3; R40A) (protein)
chain: T1 sequence (O58802 1-319 R40A)
notes: His-tagged HseDH
Km (purified protein [10]): 0.04 ± 0.01 mM
Vmax (purified protein [10]): 5.5 µmol/min/mg
kcat (purified protein [10]): 3.4 ± 0.2 s⁻¹
kcat/Km (purified protein [10]): 89100 ± 900 M⁻¹ s⁻¹
